Reference: the supplement of paper PMC10065799, “High-throughput profiling of sequence recognition by tyrosine kinases and SH2 domains using bacterial peptide display” (eLife, 2023)

Tests used:
c-Src SH2 = assay: SH2 binding enrichment of the phosphorylated peptide, bacterial display (enrichment ratio); higher = better substrate or ligand; peptides without Tyr show the background
Grb2 SH2 = Grb2 SH2 (UniProt P62993); assay: as above
SHP2-C SH2 = assay: as above
Fyn = Fyn (UniProt P06241); assay: phosphorylation enrichment, bacterial display (enrichment ratio); higher = better substrate or ligand; peptides without Tyr show the background
EPHB2 = EPHB2 (UniProt P29323); assay: as above
EPHB1 = EPHB1 (UniProt P54762); assay: as above
c-Src = assay: as above
Fer (mouse) = assay: as above
Fes = Fes (UniProt P07332); assay: as above
MERTK = MERTK (UniProt Q12866); assay: as above
FGFR3 = FGFR3 (UniProt P22607); assay: as above
Hck = Hck (UniProt P08631); assay: as above
AncSZ = assay: as above
Jak2 = Jak2 (UniProt O60674); assay: as above
c-Abl (mouse) = assay: as above
FGFR1 = FGFR1 (UniProt P11362); assay: as above
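Throughout, for SH2 binding enrichment of the phosphorylated peptide, bacterial display: peptide library displayed on the E. coli surface as eCPX fusions, selected cells deep-sequenced, score is each peptide's frequency after selection divided by its frequency in the input.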
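Throughout, for phosphorylation enrichment, bacterial display: 11-residue human phosphosite peptides and single-mutation variants displayed on the E. coli surface, counted by deep sequencing, each peptide's frequency after selection divided by its frequency in the unselected input library; frequency after pTyr selection over input frequency; kinase dosed for 20-30% of maximal phosphorylation in three min.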

EPHB1, sequence (P54762 whole entry, looked up): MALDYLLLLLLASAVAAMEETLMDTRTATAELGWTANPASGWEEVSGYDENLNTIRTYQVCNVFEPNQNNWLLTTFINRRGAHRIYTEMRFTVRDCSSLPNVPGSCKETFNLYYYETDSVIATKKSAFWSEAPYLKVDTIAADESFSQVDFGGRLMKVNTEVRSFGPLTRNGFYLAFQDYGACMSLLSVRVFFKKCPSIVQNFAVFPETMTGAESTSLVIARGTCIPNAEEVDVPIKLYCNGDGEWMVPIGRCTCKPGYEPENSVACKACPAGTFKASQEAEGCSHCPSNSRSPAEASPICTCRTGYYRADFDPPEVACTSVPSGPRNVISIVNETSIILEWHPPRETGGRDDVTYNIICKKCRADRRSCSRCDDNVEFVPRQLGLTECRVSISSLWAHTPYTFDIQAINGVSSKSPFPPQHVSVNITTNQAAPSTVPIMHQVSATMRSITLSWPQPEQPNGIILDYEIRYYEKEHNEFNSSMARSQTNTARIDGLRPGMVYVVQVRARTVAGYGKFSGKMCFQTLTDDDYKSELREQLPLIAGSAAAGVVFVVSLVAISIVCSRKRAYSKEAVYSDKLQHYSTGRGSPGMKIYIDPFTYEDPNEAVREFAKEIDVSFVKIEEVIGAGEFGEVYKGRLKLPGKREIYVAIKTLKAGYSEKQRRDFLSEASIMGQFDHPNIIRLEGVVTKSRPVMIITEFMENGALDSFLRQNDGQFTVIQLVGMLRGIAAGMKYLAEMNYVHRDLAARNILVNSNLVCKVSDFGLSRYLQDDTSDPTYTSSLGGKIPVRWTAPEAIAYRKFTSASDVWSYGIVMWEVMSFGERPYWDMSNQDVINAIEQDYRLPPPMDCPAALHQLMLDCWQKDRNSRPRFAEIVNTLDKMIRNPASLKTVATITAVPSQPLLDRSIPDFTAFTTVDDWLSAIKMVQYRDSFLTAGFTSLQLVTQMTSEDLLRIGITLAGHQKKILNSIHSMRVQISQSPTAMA
Hck, sequence (P08631 whole entry, looked up): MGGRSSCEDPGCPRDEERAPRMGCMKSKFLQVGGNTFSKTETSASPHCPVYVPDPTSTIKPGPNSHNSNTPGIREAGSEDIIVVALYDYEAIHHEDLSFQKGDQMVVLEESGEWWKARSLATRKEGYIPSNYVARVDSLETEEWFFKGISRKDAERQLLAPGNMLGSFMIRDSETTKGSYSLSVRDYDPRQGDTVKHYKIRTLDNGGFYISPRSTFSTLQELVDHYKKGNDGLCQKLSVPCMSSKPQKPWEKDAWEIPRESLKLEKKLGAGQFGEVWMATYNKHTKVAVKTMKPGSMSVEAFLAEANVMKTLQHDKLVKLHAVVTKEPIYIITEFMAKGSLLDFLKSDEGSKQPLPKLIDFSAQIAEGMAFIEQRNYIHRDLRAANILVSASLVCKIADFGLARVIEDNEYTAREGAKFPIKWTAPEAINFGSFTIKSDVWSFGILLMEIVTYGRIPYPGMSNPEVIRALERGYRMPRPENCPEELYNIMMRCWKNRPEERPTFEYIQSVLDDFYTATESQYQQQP
FGFR3, sequence (P22607 whole entry, looked up): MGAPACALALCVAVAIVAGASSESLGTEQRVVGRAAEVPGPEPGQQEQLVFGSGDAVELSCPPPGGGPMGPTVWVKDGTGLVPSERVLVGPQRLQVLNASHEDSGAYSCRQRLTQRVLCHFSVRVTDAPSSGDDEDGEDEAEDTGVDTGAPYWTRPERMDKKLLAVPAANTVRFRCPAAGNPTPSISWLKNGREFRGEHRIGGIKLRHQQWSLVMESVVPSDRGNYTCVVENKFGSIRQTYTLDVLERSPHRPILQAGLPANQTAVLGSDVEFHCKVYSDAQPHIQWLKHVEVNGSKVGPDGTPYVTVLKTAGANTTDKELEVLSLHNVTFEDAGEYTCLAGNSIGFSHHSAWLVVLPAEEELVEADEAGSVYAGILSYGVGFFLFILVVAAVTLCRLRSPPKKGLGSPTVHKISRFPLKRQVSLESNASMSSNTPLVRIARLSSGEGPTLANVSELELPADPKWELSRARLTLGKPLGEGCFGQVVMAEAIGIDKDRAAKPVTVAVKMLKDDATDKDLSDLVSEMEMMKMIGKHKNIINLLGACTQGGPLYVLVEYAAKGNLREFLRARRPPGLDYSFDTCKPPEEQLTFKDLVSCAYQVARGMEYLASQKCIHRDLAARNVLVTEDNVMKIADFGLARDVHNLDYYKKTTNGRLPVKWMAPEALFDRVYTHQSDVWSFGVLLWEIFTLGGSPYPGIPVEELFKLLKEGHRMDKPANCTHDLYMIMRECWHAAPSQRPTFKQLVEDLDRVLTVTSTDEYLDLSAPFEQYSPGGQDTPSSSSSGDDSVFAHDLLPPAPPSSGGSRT
FGFR1, sequence (P11362 whole entry, looked up, the tested form may be a part): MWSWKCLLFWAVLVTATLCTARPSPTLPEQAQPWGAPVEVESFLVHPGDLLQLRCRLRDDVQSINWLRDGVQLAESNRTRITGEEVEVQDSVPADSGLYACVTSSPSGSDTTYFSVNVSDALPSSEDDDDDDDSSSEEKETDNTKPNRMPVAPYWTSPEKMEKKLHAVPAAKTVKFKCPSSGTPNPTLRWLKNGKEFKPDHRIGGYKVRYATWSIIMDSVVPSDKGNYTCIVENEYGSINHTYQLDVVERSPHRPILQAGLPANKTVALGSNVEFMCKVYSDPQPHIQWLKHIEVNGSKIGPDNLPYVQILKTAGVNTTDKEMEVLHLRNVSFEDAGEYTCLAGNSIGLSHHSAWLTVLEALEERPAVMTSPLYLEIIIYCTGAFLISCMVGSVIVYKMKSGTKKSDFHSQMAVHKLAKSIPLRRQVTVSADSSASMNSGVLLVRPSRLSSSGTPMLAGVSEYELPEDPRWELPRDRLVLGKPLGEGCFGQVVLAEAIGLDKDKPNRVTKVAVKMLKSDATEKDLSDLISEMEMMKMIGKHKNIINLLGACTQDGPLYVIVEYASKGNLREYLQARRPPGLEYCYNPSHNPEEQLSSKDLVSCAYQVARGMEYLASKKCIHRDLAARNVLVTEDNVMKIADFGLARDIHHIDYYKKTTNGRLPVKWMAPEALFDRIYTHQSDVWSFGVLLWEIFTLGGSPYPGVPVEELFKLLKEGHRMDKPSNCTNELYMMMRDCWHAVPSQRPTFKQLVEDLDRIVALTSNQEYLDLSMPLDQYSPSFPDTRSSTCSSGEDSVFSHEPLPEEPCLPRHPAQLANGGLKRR
Fes, sequence (P07332 whole entry, looked up): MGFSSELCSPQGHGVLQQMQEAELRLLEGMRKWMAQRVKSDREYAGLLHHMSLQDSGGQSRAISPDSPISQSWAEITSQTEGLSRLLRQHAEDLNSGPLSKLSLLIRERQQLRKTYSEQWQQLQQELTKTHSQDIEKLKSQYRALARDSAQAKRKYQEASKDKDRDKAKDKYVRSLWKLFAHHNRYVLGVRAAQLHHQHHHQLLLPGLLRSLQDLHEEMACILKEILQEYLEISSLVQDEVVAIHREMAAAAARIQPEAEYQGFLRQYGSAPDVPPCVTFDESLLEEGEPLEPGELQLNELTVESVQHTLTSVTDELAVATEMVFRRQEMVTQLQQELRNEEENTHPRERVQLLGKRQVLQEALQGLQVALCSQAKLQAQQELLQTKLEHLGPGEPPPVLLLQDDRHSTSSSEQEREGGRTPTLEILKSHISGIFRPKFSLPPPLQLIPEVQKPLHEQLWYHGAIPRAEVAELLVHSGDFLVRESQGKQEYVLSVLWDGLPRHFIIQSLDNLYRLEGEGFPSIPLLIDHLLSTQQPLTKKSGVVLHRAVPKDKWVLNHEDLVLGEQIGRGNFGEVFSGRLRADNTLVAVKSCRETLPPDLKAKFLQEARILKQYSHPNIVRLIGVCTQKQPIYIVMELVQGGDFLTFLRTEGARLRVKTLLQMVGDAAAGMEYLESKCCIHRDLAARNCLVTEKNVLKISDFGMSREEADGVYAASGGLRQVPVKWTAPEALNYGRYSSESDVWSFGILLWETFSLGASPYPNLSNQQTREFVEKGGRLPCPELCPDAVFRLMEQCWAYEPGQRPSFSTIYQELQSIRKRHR
Fyn, sequence (P06241 whole entry, looked up): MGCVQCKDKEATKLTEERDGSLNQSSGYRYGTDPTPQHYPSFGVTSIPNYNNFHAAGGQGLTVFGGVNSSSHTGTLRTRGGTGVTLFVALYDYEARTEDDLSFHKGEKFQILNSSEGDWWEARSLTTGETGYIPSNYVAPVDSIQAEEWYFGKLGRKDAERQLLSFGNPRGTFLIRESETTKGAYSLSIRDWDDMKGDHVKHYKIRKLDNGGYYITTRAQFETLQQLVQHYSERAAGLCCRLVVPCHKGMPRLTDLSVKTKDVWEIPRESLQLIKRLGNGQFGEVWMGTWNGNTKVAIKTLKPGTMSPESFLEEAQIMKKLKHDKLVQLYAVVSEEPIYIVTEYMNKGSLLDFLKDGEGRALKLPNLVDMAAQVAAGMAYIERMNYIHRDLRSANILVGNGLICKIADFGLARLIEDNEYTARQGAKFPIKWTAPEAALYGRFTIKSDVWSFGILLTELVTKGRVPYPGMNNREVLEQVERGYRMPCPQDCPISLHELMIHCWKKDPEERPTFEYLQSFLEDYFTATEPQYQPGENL
Grb2 SH2, sequence (P62993 whole entry, looked up): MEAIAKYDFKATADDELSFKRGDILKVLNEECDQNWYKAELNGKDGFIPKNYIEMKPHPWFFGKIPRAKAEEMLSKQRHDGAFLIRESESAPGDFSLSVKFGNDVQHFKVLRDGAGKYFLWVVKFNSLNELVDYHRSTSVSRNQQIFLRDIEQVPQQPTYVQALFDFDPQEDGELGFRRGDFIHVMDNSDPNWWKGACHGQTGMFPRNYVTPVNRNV

Sequence	SH2 binding enrichment (c-Src SH2)	SH2 binding enrichment (Grb2 SH2)	SH2 binding enrichment (SHP2-C SH2)	phosphorylation enrichment (Fyn)	phosphorylation enrichment (EPHB2)	phosphorylation enrichment (EPHB1)	phosphorylation enrichment (c-Src)	phosphorylation enrichment (Fer (mouse))	phosphorylation enrichment (Fes)	phosphorylation enrichment (MERTK)	phosphorylation enrichment (FGFR3)	phosphorylation enrichment (Hck)	phosphorylation enrichment (AncSZ)	phosphorylation enrichment (Jak2)	phosphorylation enrichment (c-Abl (mouse))	phosphorylation enrichment (FGFR1)
KLQKKYGPIYS [CYP17A1_Y60]	0.588	1.01	0.819	1.59	0.351	0.361	1.17	0.39	0.468	0.422	0.438	2.26	0.433	0.378	0.451	0.318
QMVRMYASSYM [AVPR2_Y124_G122R]	0.455	0.899	0.64	0.557	0.787	0.842	0.464	0.717	1.28	0.659	0.988	0.621	1.31	0.764	0.675	0.622
NPQKSCFIRLF [WAS_Y83_Y83C_YF]	0.631	0.862	0.817	0.459	0.578	0.606	0.453	0.47	1.18	0.467	0.704	0.526	1.06	0.974	0.848	0.583
YGMSSYITRED [FNDC3B_Y180_T179S]	0.472	0.764	0.669	0.423	0.452	0.545	0.51	0.524	0.844	0.544	0.696	0.431	0.819	0.697	0.645	0.529
CDTKLYTSAPN [DNTTIP2_Y427]	0.387	0.808	0.607	0.606	0.791	0.626	0.65	0.694	1.11	0.679	0.764	0.776	1	0.936	0.922	0.595
GSETPYVDRTP [ESS2_Y335]	0.573	0.814	0.719	0.451	0.477	0.408	0.453	0.409	0.821	0.466	0.553	0.429	0.711	0.813	0.603	0.488
LLASRYDSPIN [ABLIM1_Y638]	2.63	0.704	0.991	1.18	0.929	1.58	0.96	0.607	1.65	1.09	0.636	0.923	1.32	1.59	1.13	1.12
NDQANYSLNTD [ADA_Y290]	0.554	0.764	0.696	0.585	0.68	0.623	0.535	0.498	0.982	0.561	0.749	0.465	0.966	0.981	0.814	0.566
GESKDYALHVG [SVIL_Y185]	0.452	0.815	0.612	0.463	0.721	1.92	0.416	0.436	0.798	0.468	0.532	0.461	0.606	0.461	0.502	0.469
EEEYEYMNRRR [ERBB3_Y1199_D1194E]	0.605	0.777	0.618	0.332	0.402	0.324	0.36	0.342	0.804	0.356	0.583	0.546	1.15	0.882	0.329	0.429
NNFGNYNNQSS [HNRNPA1_Y318_D314N]	0.337	0.805	0.607	0.382	0.393	0.366	0.32	0.379	0.632	0.326	0.708	0.354	0.564	0.432	0.626	0.381
AFDNLYYWDQD [ERBB2_Y1221]	0.446	0.807	0.698	6.31	4.41	5.88	5.67	3.07	2.42	7.32	9.6	5.36	2.31	1.55	0.81	9.23
YARECYSALPQ [SARS2_Y52_G51C]	0.776	0.74	0.753	0.636	0.868	0.712	0.676	0.663	0.972	1.7	1.57	3.13	1.16	0.666	0.716	2.42
MHDSNSVSKGS [PDGFRA_Y849_Y849S]	0.465	0.787	0.595	0.381	0.374	0.282	0.428	0.392	0.523	0.448	0.329	0.432	0.445	0.687	0.424	0.402
